Laboratory results as given in paper PMC4465122 (EBioMedicine, 2015).

Molecular target: the molecule itself
Test: cross-linking

Protein | stoichiometry N
recombinant human prolidase (rhPEPD) (enzyme) MAAATGPSFWLGNETLKVPLALFALNRQRLCERLRKNPAVQAGSIVVLQGGEETQRYCTDTGVLFRQESFFHWAFGVTEPGCYGVIDVDTGKSTLFVPRLPASHATWMGKIHSKEHFKEKYAVDDVQYVDEIASVLTSQKPSVLLTLRGVNTDSGSVCREASFDGISKFEVNNTILHPEIVECRVFKTDMELEVLRYTNKISSEAHREVMKAVKVGMKEYELESLFEHYCYSRGGMRHSSYTCICGSGENSAVLHYGHAGAPNDRTIQNGDMCLFDMGGEYYCFASDITCSFPANGKFTADQKAVYEAVLRSSRAVMGAMKPGVWWPDMHRLADRIHLEELAHMGILSGSVDAMVQAHLGAVFMPHGLGHFLGIDVHDVGGYPEGVERIDEPGLRSLRTARHLQPGMVLTVEPGIYFIDHLLDEALADPARASFLNREVLQRFRGFGGVRIEEDVVVTDSGIELLTCVPRTVEEIEACMAGCDKAFTPFSGPK | 2
rhPEPD^G278D, enzymatically inactive mutant of recombinant human prolidase (enzyme) MAAATGPSFWLGNETLKVPLALFALNRQRLCERLRKNPAVQAGSIVVLQGGEETQRYCTDTGVLFRQESFFHWAFGVTEPGCYGVIDVDTGKSTLFVPRLPASHATWMGKIHSKEHFKEKYAVDDVQYVDEIASVLTSQKPSVLLTLRGVNTDSGSVCREASFDGISKFEVNNTILHPEIVECRVFKTDMELEVLRYTNKISSEAHREVMKAVKVGMKEYELESLFEHYCYSRGGMRHSSYTCICGSGENSAVLHYGHAGAPNDRTIQNGDMCLFDMDGEYYCFASDITCSFPANGKFTADQKAVYEAVLRSSRAVMGAMKPGVWWPDMHRLADRIHLEELAHMGILSGSVDAMVQAHLGAVFMPHGLGHFLGIDVHDVGGYPEGVERIDEPGLRSLRTARHLQPGMVLTVEPGIYFIDHLLDEALADPARASFLNREVLQRFRGFGGVRIEEDVVVTDSGIELLTCVPRTVEEIEACMAGCDKAFTPFSGPK | 2
